Molecular target: phosphorylated PhoP-His (recombinant N-terminal His-tag PhoP protein of Photorhabdus luminescens TT01, phosphorylated in vitro with acetyl phosphate) (Photorhabdus luminescens TT01)
Test: Mn2+-Phos-tag SDS-PAGE; 4 ug purified PhoP-His incubated in vitro with 50 mM acetyl phosphate (lane 2) or without (lane 1) in the EMSA buffer; precast 12.5% polyacrylamide Mn2+-Phos-tag gel run at 4°C and 150 V; Coomassie stain

## phosphorylated PhoP-His (recombinant N-terminal His-tag PhoP protein of Photorhabdus luminescens TT01, phosphorylated in vitro with acetyl phosphate) (natural protein)
  stoichiometry N: 2

From publication PMC4198210
